# Assay results published in article PMC9726900 (2022).
# Molecular target: 46w60 nucleosome (recombinant human histone octamer on Widom 601 DNA with 46-bp and 60-bp flanks), … (human, UniProt P0C0S8 1-130; P62807 1-126; P68431 1-136; P62805 1-103)
# Test: MST
row,Binder,Kd [nM]
1,CHD4(1–1380) (domain or fragment) MASGLGSPSPCSAGSEEEDMDALLNNSLPPPHPENEEDPEEDLSETETPKLKKKKKPKKPRDPKIPKSKRQKKERMLLCRQLGDSSGEGPEFVEEEEEVALRSDSEGSDYTPGKKKKKKLGPKKEKKSKSKRKEEEEEEDDDDDSKEPKSSAQLLEDWGMEDIDHVFSEEDYRTLTNYKAFSQFVRPLIAAKNPKIAVSKMMMVLGAKWREFSTNNPFKGSSGASVAAAAAAAVAVVESMVTATEVAPPPPPVEVPIRKAKTKEGKGPNARRKPKGSPRVPDAKKPKPKKVAPLKIKLGGFGSKRKRSSSEDDDLDVESDFDDASINSYSVSDGSTSRSSRSRKKLRTTKKKKKGEEEVTAVDGYETDHQDYCEVCQQGGEIILCDTCPRAYHMVCLDPDMEKAPEGKWSCPHCEKEGIQWEAKEDNSEGEEILEEVGGDLEEEDDHHMEFCRVCKDGGELLCCDTCPSSYHIHCLNPPLPEIPNGEWLCPRCTCPALKGKVQKILIWKWGQPPSPTPVPRPPDADPNTPSPKPLEGRPERQFFVKWQGMSYWHCSWVSELQLELHCQVMFRNYQRKNDMDEPPSGDFGGDEEKSRKRKNKDPKFAEMEERFYRYGIKPEWMMIHRILNHSVDKKGHVHYLIKWRDLPYDQASWESEDVEIQDYDLFKQSYWNHRELMRGEEGRPGKKLKKVKLRKLERPPETPTVDPTVKYERQPEYLDATGGTLHPYQMEGLNWLRFSWAQGTDTILADEMGLGKTVQTAVFLYSLYKEGHSKGPFLVSAPLSTIINWEREFEMWAPDMYVVTYVGDKDSRAIIRENEFSFEDNAIRGGKKASRMKKEASVKFHVLLTSYELITIDMAILGSIDWACLIVDEAHRLKNNQSKFFRVLNGYSLQHKLLLTGTPLQNNLEELFHLLNFLTPERFHNLEGFLEEFADIAKEDQIKKLHDMLGPHMLRRLKADVFKNMPSKTELIVRVELSPMQKKYYKYILTRNFEALNARGGGNQVSLLNVVMDLKKCCNHPYLFPVAAMEAPKMPNGMYDGSALIRASGKLLLLQKMLKNLKEGGHRVLIFSQMTKMLDLLEDFLEHEGYKYERIDGGITGNMRQEAIDRFNAPGAQQFCFLLSTRAGGLGINLATADTVIIYDSDWNPHNDIQAFSRAHRIGQNKKVMIYRFVTRASVEERITQVAKKKMMLTHLVVRPGLGSKTGSMSKQELDDILKFGTEELFKDEATDGGGDNKEGEDSSVIHYDDKAIERLLDRNQDETEDTELQGMNEYLSSFKVAQYVVREEEMGEEEEVEREIIKQEESVDPDYWEKLLRHHYEQQQEDLARNLGKGKRIRKQVNYNDGSQEDRDWQDDQSDNQSDYSVASEEGDEDFDER,430
2,CHD4(1–1230) (domain or fragment) MASGLGSPSPCSAGSEEEDMDALLNNSLPPPHPENEEDPEEDLSETETPKLKKKKKPKKPRDPKIPKSKRQKKERMLLCRQLGDSSGEGPEFVEEEEEVALRSDSEGSDYTPGKKKKKKLGPKKEKKSKSKRKEEEEEEDDDDDSKEPKSSAQLLEDWGMEDIDHVFSEEDYRTLTNYKAFSQFVRPLIAAKNPKIAVSKMMMVLGAKWREFSTNNPFKGSSGASVAAAAAAAVAVVESMVTATEVAPPPPPVEVPIRKAKTKEGKGPNARRKPKGSPRVPDAKKPKPKKVAPLKIKLGGFGSKRKRSSSEDDDLDVESDFDDASINSYSVSDGSTSRSSRSRKKLRTTKKKKKGEEEVTAVDGYETDHQDYCEVCQQGGEIILCDTCPRAYHMVCLDPDMEKAPEGKWSCPHCEKEGIQWEAKEDNSEGEEILEEVGGDLEEEDDHHMEFCRVCKDGGELLCCDTCPSSYHIHCLNPPLPEIPNGEWLCPRCTCPALKGKVQKILIWKWGQPPSPTPVPRPPDADPNTPSPKPLEGRPERQFFVKWQGMSYWHCSWVSELQLELHCQVMFRNYQRKNDMDEPPSGDFGGDEEKSRKRKNKDPKFAEMEERFYRYGIKPEWMMIHRILNHSVDKKGHVHYLIKWRDLPYDQASWESEDVEIQDYDLFKQSYWNHRELMRGEEGRPGKKLKKVKLRKLERPPETPTVDPTVKYERQPEYLDATGGTLHPYQMEGLNWLRFSWAQGTDTILADEMGLGKTVQTAVFLYSLYKEGHSKGPFLVSAPLSTIINWEREFEMWAPDMYVVTYVGDKDSRAIIRENEFSFEDNAIRGGKKASRMKKEASVKFHVLLTSYELITIDMAILGSIDWACLIVDEAHRLKNNQSKFFRVLNGYSLQHKLLLTGTPLQNNLEELFHLLNFLTPERFHNLEGFLEEFADIAKEDQIKKLHDMLGPHMLRRLKADVFKNMPSKTELIVRVELSPMQKKYYKYILTRNFEALNARGGGNQVSLLNVVMDLKKCCNHPYLFPVAAMEAPKMPNGMYDGSALIRASGKLLLLQKMLKNLKEGGHRVLIFSQMTKMLDLLEDFLEHEGYKYERIDGGITGNMRQEAIDRFNAPGAQQFCFLLSTRAGGLGINLATADTVIIYDSDWNPHNDIQAFSRAHRIGQNKKVMIYRFVTRASVEERITQVAKKKMMLTHLVVRPGLGSKTGSMSKQELDDILKFGTEELFKDE,250

# The remaining lines, values ahead:
row,Kd [nM],Binder
1,150,CHD4(1–1810) (domain or fragment) MASGLGSPSPCSAGSEEEDMDALLNNSLPPPHPENEEDPEEDLSETETPKLKKKKKPKKPRDPKIPKSKRQKKERMLLCRQLGDSSGEGPEFVEEEEEVALRSDSEGSDYTPGKKKKKKLGPKKEKKSKSKRKEEEEEEDDDDDSKEPKSSAQLLEDWGMEDIDHVFSEEDYRTLTNYKAFSQFVRPLIAAKNPKIAVSKMMMVLGAKWREFSTNNPFKGSSGASVAAAAAAAVAVVESMVTATEVAPPPPPVEVPIRKAKTKEGKGPNARRKPKGSPRVPDAKKPKPKKVAPLKIKLGGFGSKRKRSSSEDDDLDVESDFDDASINSYSVSDGSTSRSSRSRKKLRTTKKKKKGEEEVTAVDGYETDHQDYCEVCQQGGEIILCDTCPRAYHMVCLDPDMEKAPEGKWSCPHCEKEGIQWEAKEDNSEGEEILEEVGGDLEEEDDHHMEFCRVCKDGGELLCCDTCPSSYHIHCLNPPLPEIPNGEWLCPRCTCPALKGKVQKILIWKWGQPPSPTPVPRPPDADPNTPSPKPLEGRPERQFFVKWQGMSYWHCSWVSELQLELHCQVMFRNYQRKNDMDEPPSGDFGGDEEKSRKRKNKDPKFAEMEERFYRYGIKPEWMMIHRILNHSVDKKGHVHYLIKWRDLPYDQASWESEDVEIQDYDLFKQSYWNHRELMRGEEGRPGKKLKKVKLRKLERPPETPTVDPTVKYERQPEYLDATGGTLHPYQMEGLNWLRFSWAQGTDTILADEMGLGKTVQTAVFLYSLYKEGHSKGPFLVSAPLSTIINWEREFEMWAPDMYVVTYVGDKDSRAIIRENEFSFEDNAIRGGKKASRMKKEASVKFHVLLTSYELITIDMAILGSIDWACLIVDEAHRLKNNQSKFFRVLNGYSLQHKLLLTGTPLQNNLEELFHLLNFLTPERFHNLEGFLEEFADIAKEDQIKKLHDMLGPHMLRRLKADVFKNMPSKTELIVRVELSPMQKKYYKYILTRNFEALNARGGGNQVSLLNVVMDLKKCCNHPYLFPVAAMEAPKMPNGMYDGSALIRASGKLLLLQKMLKNLKEGGHRVLIFSQMTKMLDLLEDFLEHEGYKYERIDGGITGNMRQEAIDRFNAPGAQQFCFLLSTRAGGLGINLATADTVIIYDSDWNPHNDIQAFSRAHRIGQNKKVMIYRFVTRASVEERITQVAKKKMMLTHLVVRPGLGSKTGSMSKQELDDILKFGTEELFKDEATDGGGDNKEGEDSSVIHYDDKAIERLLDRNQDETEDTELQGMNEYLSSFKVAQYVVREEEMGEEEEVEREIIKQEESVDPDYWEKLLRHHYEQQQEDLARNLGKGKRIRKQVNYNDGSQEDRDWQDDQSDNQSDYSVASEEGDEDFDERSEAPRRPSRKGLRNDKDKPLPPLLARVGGNIEVLGFNARQRKAFLNAIMRYGMPPQDAFTTQWLVRDLRGKSEKEFKAYVSLFMRHLCEPGADGAETFADGVPREGLSRQHVLTRIGVMSLIRKKVQEFEHVNGRWSMPELAEVEENKKMSQPGSPSPKTPTPSTPGDTQPNTPAPVPPAEDGIKIEENSLKEEESIEGEKEVKSTAPETAIECTQAPAPASEDEKVVVEPPEGEEKVEKAEVKERTEEPMETEPKGAADVEKVEEKSAIDLTPIVVEDKEEKKEEEEKKEVMLQNGETPKDLNDEKQKKNIKQRFMFNIADGGFTELHSLWQNEERAATVTKKTYEIWHRRHDYWLLAGIINHGYARWQDIQNDPRYAILNEPFKGEMNRGNFLEIKNKFLARRFKLLEQALVIEEQLRRAAYLNMSED
2,210,CHD4(1–1540) (domain or fragment) MASGLGSPSPCSAGSEEEDMDALLNNSLPPPHPENEEDPEEDLSETETPKLKKKKKPKKPRDPKIPKSKRQKKERMLLCRQLGDSSGEGPEFVEEEEEVALRSDSEGSDYTPGKKKKKKLGPKKEKKSKSKRKEEEEEEDDDDDSKEPKSSAQLLEDWGMEDIDHVFSEEDYRTLTNYKAFSQFVRPLIAAKNPKIAVSKMMMVLGAKWREFSTNNPFKGSSGASVAAAAAAAVAVVESMVTATEVAPPPPPVEVPIRKAKTKEGKGPNARRKPKGSPRVPDAKKPKPKKVAPLKIKLGGFGSKRKRSSSEDDDLDVESDFDDASINSYSVSDGSTSRSSRSRKKLRTTKKKKKGEEEVTAVDGYETDHQDYCEVCQQGGEIILCDTCPRAYHMVCLDPDMEKAPEGKWSCPHCEKEGIQWEAKEDNSEGEEILEEVGGDLEEEDDHHMEFCRVCKDGGELLCCDTCPSSYHIHCLNPPLPEIPNGEWLCPRCTCPALKGKVQKILIWKWGQPPSPTPVPRPPDADPNTPSPKPLEGRPERQFFVKWQGMSYWHCSWVSELQLELHCQVMFRNYQRKNDMDEPPSGDFGGDEEKSRKRKNKDPKFAEMEERFYRYGIKPEWMMIHRILNHSVDKKGHVHYLIKWRDLPYDQASWESEDVEIQDYDLFKQSYWNHRELMRGEEGRPGKKLKKVKLRKLERPPETPTVDPTVKYERQPEYLDATGGTLHPYQMEGLNWLRFSWAQGTDTILADEMGLGKTVQTAVFLYSLYKEGHSKGPFLVSAPLSTIINWEREFEMWAPDMYVVTYVGDKDSRAIIRENEFSFEDNAIRGGKKASRMKKEASVKFHVLLTSYELITIDMAILGSIDWACLIVDEAHRLKNNQSKFFRVLNGYSLQHKLLLTGTPLQNNLEELFHLLNFLTPERFHNLEGFLEEFADIAKEDQIKKLHDMLGPHMLRRLKADVFKNMPSKTELIVRVELSPMQKKYYKYILTRNFEALNARGGGNQVSLLNVVMDLKKCCNHPYLFPVAAMEAPKMPNGMYDGSALIRASGKLLLLQKMLKNLKEGGHRVLIFSQMTKMLDLLEDFLEHEGYKYERIDGGITGNMRQEAIDRFNAPGAQQFCFLLSTRAGGLGINLATADTVIIYDSDWNPHNDIQAFSRAHRIGQNKKVMIYRFVTRASVEERITQVAKKKMMLTHLVVRPGLGSKTGSMSKQELDDILKFGTEELFKDEATDGGGDNKEGEDSSVIHYDDKAIERLLDRNQDETEDTELQGMNEYLSSFKVAQYVVREEEMGEEEEVEREIIKQEESVDPDYWEKLLRHHYEQQQEDLARNLGKGKRIRKQVNYNDGSQEDRDWQDDQSDNQSDYSVASEEGDEDFDERSEAPRRPSRKGLRNDKDKPLPPLLARVGGNIEVLGFNARQRKAFLNAIMRYGMPPQDAFTTQWLVRDLRGKSEKEFKAYVSLFMRHLCEPGADGAETFADGVPREGLSRQHVLTRIGVMSLIRKKVQEFEHVNGRWSMPELAEVEENKKMSQPGSPSPKT
